Measurements from publication PMC8899823 (Science translational medicine, 2022).

Columns and labels:
SARS-CoV-2 RBD = SARS-CoV-2 RBD (SARS-CoV-2, UniProt P0DTC2); assay: ELISA
[1] = biological target: bat RsSHC014 spike protein (Bat SARS-like coronavirus RsSHC014, UniProt U5WLK5); assay: ELISA

B1: DH1047 IgG (antibody, V domains shown)
VH: QVQLVQSGAEVKKPGASVQVSCQASANTFTNHYIHWVRQAPGQGLEWMGIIYPTGGNTIYAQGFQGRVTMTRDTSLNTIYLELSSLRSEDTAVYYCARDVRVDDSWSGYDLLSGGTYFDYWGQGTLVTVSS
VL: not shown
B1: binds (SARS-CoV-2 RBD); binds [1].
